Data: patent publication US9125872B2, “Polyethylene glycol aerogels for targeted delivery of pharmaceutical drubs” (priority 2009, dated 2015)

Key:
Format in all cases: physicochemical
[1] = Drug loading and biologics encapsulation in PEG aerogel granules
Experimental: To 1 gram PEG [MW=2,000,000] dissolved in 100 ml anhydrous toluene, 100 mg [0.1 gram] BSA powder is dispersed and the mixture was stirred at 38-45° C. for 30-60 minutes to allow coating/adsorption of soluble PEG molecules on solid BSA particles. 0.2 g benzoyl peroxide was heated in 15 ml anhydrous toluene at 85° C. for 10 minutes. After cooling to 76° C., the catalyst solution was added to the warm PEG-BSA suspension at 38° C., which raised the temperature to 43° C., and mixing was continued for 15 minutes. The solution was poured into a mold and stored in a glove box. Toluene was later removed from the gel by solvent extraction with supercritical carbon dioxide fluid to obtain dry solid aerogel encapsulating BSA fine particles.
5 ml (=2.6 g) granules from PEG aerogel #2 (2009 cold preparation) were desiccated overnight to remove any absorbed vapors during storage.
Gemzar [Eli Lilly, Indiana] solution was made by dissolving 200 mg Gemcitabine HCl in 5 ml 0.9% NaCl [sodium chloride] aqueous solution. 2.3 ml (0.61 g) PEG aerogel #1 [“hot” preparation, 2009] granules were desiccated overnight to remove any absorbed vapors during storage. […] The mixture was placed in a desiccator to remove excess water and render dry loaded aerogel granules.
BSA protein (MW=66,000) was used as an example of large biologic molecules to be encapsulated in PEG aerogel during the gelation process. The encapsulation method is described in the aerogel preparation section.

[2] = Sequential time release of BSA encapsulated in PEG aerogel in distilled water (UV-spectroscopy); conditions: room temperature
Experimental: As an example of encapsulation and release of pharmaceutical biologics, release tests conducted using one sample weighing 13 mg PEG aerogel encapsulating 1 mg BSA protein in 10 ml distilled water at room temperature. Small solution samples were withdrawn at indicated time intervals above for BSA analysis with UV-spectroscopy at 280 and 260 nm wavelength. Results are calculated and tabulated.

[3] = Solubility of purified solid protein-PEG conjugates in water
[4] = of the PEG aerogel granules carrying the drug/biologic

bovine serum albumin [BSA Protein]
Aerogel Density [1, 4]: 0.30 g/cc
Aerogel Porosity [1, 4]: 75% vol %
Loading/Encapsulation ([1]; weight of solution (or BSA) per g PEG aerogel): 77 mg/g Aerogel
Loading/Encapsulation ([1]; weight of solution (or BSA) per ml PEG aerogel): 23 mg/ml Aerogel
Released BSA ([2]; 15 minutes, 13 mg PEG aerogel with 1 mg BSA in 10 ml distilled water): 0.19 mg
Cumulative Percent Release ([2]; 15 minutes, distilled water): 19 % of 1 mg
Cumulative Release ([2]; 15 minutes, distilled water): 0.19 mg
Released BSA ([2]; 3 hours (increment), distilled water): 0.22 mg
Cumulative Percent Release ([2]; 3 hours, distilled water): 41 % of 1 mg
Cumulative Release ([2]; 3 hours, distilled water): 0.41 mg
Released BSA ([2]; 20 hours (increment), distilled water): 0.26 mg
Cumulative Percent Release ([2]; 20 hours, distilled water): 67 % of 1 mg
Cumulative Release ([2]; 20 hours, distilled water): 0.67 mg

BSA-PEG-N: BSA linked to aerogel of PEG + Bis(3-aminopropyl) terminated PEG 1,500/2,100
Solubility in Water ([3]; Body Temperature (37° C.)): No
Solubility in Water ([3]; Room Temperature (23° C.)): No

BSA-PEG-O: BSA linked to aerogel of PEG + Diglycidylether terminated PEG, 1000
Solubility in Water ([3]; Body Temperature (37° C.)): No
Solubility in Water ([3]; Room Temperature (23° C.)): No

BSA-PEG: BSA surface-linked via EDC to PEG only aerogel
Solubility in Water ([3]; Body Temperature (37° C.)): No
Solubility in Water ([3]; Body Temperature (37° C.), listed as aerogel-BSA “conjugate”): water insoluble
Solubility in Water ([3]; Room Temperature (23° C.)): No
